Read-outs that look alike come from different tables or passages of the source.
T1: human DLL3 (Homo sapiens, UniProt Q9NYJ7)
T1 construct: (Q9NYJ7, Gene ID: 10683, residues 27 to 466; purchased from Evitria); 3C protease recognition site (C); Fc knob into hole (C); purchased Evitria
T1 sequence (Q9NYJ7 27-466): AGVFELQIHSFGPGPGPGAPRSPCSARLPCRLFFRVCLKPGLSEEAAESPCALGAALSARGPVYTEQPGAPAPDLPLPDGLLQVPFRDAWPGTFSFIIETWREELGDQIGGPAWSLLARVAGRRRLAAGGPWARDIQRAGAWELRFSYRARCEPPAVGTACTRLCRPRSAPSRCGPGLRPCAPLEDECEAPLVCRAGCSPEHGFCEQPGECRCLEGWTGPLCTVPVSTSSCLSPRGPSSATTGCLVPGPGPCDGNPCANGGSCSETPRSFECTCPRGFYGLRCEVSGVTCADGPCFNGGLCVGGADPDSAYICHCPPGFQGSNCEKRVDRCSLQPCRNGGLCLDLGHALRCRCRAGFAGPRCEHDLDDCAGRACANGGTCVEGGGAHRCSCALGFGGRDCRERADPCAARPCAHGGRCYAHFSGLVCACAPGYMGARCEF

T2: NCI-H82 cells expressing human DLL3 (Homo sapiens, UniProt Q9NYJ7)
T2 construct: a human lung carcinoma cell line which endogenously expresses DLL3 on the surface; host or cells: NCI-H82
T2 sequence (Q9NYJ7 27-618): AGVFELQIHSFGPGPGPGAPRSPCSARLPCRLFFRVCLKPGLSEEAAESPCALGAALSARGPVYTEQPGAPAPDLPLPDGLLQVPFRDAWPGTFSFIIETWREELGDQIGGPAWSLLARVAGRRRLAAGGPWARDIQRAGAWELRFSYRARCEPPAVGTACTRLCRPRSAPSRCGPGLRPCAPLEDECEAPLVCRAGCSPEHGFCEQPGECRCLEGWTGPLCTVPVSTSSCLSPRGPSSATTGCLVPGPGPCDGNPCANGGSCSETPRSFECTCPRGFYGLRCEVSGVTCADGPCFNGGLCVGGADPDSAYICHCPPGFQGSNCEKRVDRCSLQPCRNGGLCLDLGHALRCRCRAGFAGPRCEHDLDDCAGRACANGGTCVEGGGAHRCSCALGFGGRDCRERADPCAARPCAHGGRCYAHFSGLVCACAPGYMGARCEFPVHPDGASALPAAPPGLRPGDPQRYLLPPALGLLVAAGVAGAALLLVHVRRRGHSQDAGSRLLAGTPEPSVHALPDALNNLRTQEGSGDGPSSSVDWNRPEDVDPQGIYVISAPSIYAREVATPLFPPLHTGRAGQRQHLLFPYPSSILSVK


Tests used:
hDLL3-MC38 tumor model = assay: Biodistribution of radio-labelled DARPin conjugates in hDLL3-MC38 tumor model; format: in vivo, mouse; conditions: Pb-212 DOTAM conjugate 0.01 mg/kg (10 μCi) i.v., s.c. hDLL3-MC38
Text: hDLL3-MC38 tumor model. ATH mice were purchased from Envigo. General handling and maintenance of mice was done as described above for the NCI-H82 tumor model. hDLL3-MC38 cells were purchased from Biocytogen (Catalog No. 311448). […] Cells were quantified using Countess cell counter.
Biodistribution study. […] Based on immunohistochemistry analyses, the hDLL3-MC38 tumors have a higher level of human DLL3 expression than the NCI-H82 tumors described in Example 3 (data not shown). Biodistribution was monitored at 1 h, 4 h and 24h post-injection. Mice were euthanized by CO2 inhalation and cervical dislocation.
Mice were euthanized by CO2 inhalation and cervical dislocation.

human DLL3 = target: T1, human DLL3; assay: SPR multi-trace analysis, binding to human DLL3 (Example 1); conditions: immobilized bio-DLL3 (hDLL3 ECD), PBS pH 7.4, 1:1 Langmuir, Table 1
Procedure: Kinetic binding parameters and binding affinities of two domain (2D) ankyrin repeat proteins comprising an ankyrin repeat domain with binding specificity for DLL3 and an ankyrin repeat domain with binding specificity for serum albumin were determined by surface plasmon resonance (SPR) multi-trace analysis.
In brief, a SPR assay was used to determine the binding kinetics to the target human DLL3. The data were generated using BioRad ProteOn instrument in SPR running buffer (PBS, pH 7.4 containing 0.005% Tween 20®). […] The chip was coated with biotinylated target (bio-DLL3) to reach a signal intensity of 1780 RU. All analytes (3-fold dilution ranging from 300-33.3 nM) were injected in succession for 240 s (100 μl/min) and dissociation was recorded for 10800 s (100 μl/min). Each injection was followed by a regeneration step with 16 mM H3PO4 for 18 s. […] The bio-DLL3 target used was as described in U.S. 63/550,951, i.e. the extracellular domain (ECD) of human DLL3 protein (Q9NYJ7, Gene ID: 10683, residues 27 to 466; purchased from Evitria) linked via an Avi-tag (for site-directed biotinylation), followed by a 3C protease recognition site, to a Fc knob into hole (hDLL3 ECD-Avi-Fckih).

[1] = target: T2, NCI-H82 cells expressing human DLL3; assay: Cell binding titration on NCI-H82 cells; format: cell-based
Procedure: Furthermore, cell binding titration assays were also performed with selected two domain (2D) designed ankyrin repeat proteins to determine binding to human cells expressing DLL3 endogenously, in absence and presence of human serum albumin. For this purpose, NCI-H82 cells were used, a human lung carcinoma cell line which endogenously expresses DLL3 on the surface. […] A non-binding DARPin comprising SEQ ID NO: 22 was used as a negative control.
In brief, 1×10^5 cells/well were resuspended in 100 μl DARPin dilution (500 nM, 1:5 serial diluted in PBS, 2% FBS) and incubated for 1 h at 4° C. This step was performed in absence and presence of 10 μM Human Serum Albumine (CSL Behring #150570). Cells were washed twice with PBS, 2% FBS and resuspended in 100 μl anti-DARPin antibody (rabbit anti-DARPin 1.4.8) and LIVE/DEAD cell stain (1:1000, Biolegend #423106). After incubation and washing, cells were incubated with detection antibody for 30 minutes (Goat […] IgG (H+L), AF647, Thermo Fisher #21445). Cells were fixed (Paraformaldehyde Solution, TCL119, LucernaChem) and acquired at Attune N×T (Thermo Life Technologies). Raw fcs files were exported and analyzed using FlowJo software. MFI values of live AF647-positive cells were exported from FlowJo and plotted using GraphPad Prism software.

[2] = athymic nude mice, 24 h, Example 9
[3] = absence of human serum albumin, read-out: Cell binding EC50, w/o HSA
[4] = presence of 10 μM human serum albumin, read-out: Cell binding EC50, with HSA
[5] = athymic nude mice, 4 h, Example 7
[6] = athymic nude mice, 4 h, Example 9
[7] = athymic nude mice, 24 h, Example 7

Molecule | T:K ratio (hDLL3-MC38 tumor model; [2]) | Kd (human DLL3) [nM] | koff (human DLL3) [s⁻¹] | kon (human DLL3) [M⁻¹ s⁻¹] | EC50 [1, 3] [nM] | EC50 [1, 4] [nM] | Blood % ID/g (hDLL3-MC38 tumor model; [5]) [% ID/g] | Kidneys % ID/g (hDLL3-MC38 tumor model; [5]) [% ID/g] | Tumors % ID/g (hDLL3-MC38 tumor model; [5]) [% ID/g] | Blood % ID/g (hDLL3-MC38 tumor model; [7]) [% ID/g] | Kidneys % ID/g (hDLL3-MC38 tumor model; [7]) [% ID/g] | Tumors % ID/g (hDLL3-MC38 tumor model; [7]) [% ID/g] | other results
MAM279 conjugate: SEQ ID NO: 15 conjugated to DOTAM-maleimide, labelled with Pb-212 (natural lead in PK studies) (conjugate, DOTAM-maleimide, Pb-212 label; Ankyrin repeat protein with tag (GS-MAM279-tag)) GSDLGKKLLEAARAGQDDEVRELLKAGADVNAKDYFSHTPLHLAARNGHLKIVEVLLKAGADVNAKDFAGKTPLHLAADAGHLEIVEVLLKAGADVNAQDIFGKTPADIAADAGHEDIAEVLQKAAGSPTPTPTTPTPTPTTPTPTPTGSDLGKKLLAAAAQGQDDEVRELLKAGANVNAKDLFGYTPLHLAAWRGHLEIVEVLLKAGADVNAKDAAGETPLHLAAWFGHLEIVEVLLKAGADVNAQDLQGKTPADLAAKEGHEDIAEVLQKAAGSGSC | above 1 | – | – | – | – | – | – | – | – | – | – | – | –
MAM279: Two domain (2D) ankyrin repeat protein: serum albumin-specific domain (SEQ ID NO: 7), PT linker, DLL3-specific domain of MAM093 (protein, Ankyrin repeat protein (MAM279)) DLGKKLLEAARAGQDDEVRELLKAGADVNAKDYFSHTPLHLAARNGHLKIVEVLLKAGADVNAKDFAGKTPLHLAADAGHLEIVEVLLKAGADVNAQDIFGKTPADIAADAGHEDIAEVLQKAAGSPTPTPTTPTPTPTTPTPTPTGSDLGKKLLAAAAQGQDDEVRELLKAGANVNAKDLFGYTPLHLAAWRGHLEIVEVLLKAGADVNAKDAAGETPLHLAAWFGHLEIVEVLLKAGADVNAQDLQGKTPADLAAKEGHEDIAEVLQKAA | 2.5 | 0.616 | 1.44e-05 | 23300 | 2.5 | 2.1 | 21.2 | 14.3 | 20.6 | 8.1 | 23.3 | 57.6 | Blood % ID/g (hDLL3-MC38 tumor model; [6]): 21 % ID/g; Kidneys % ID/g (hDLL3-MC38 tumor model; [6]): 14 % ID/g; T:K ratio (hDLL3-MC38 tumor model; [6]): 1.5; Tumors % ID/g (hDLL3-MC38 tumor model; [6]): 21 % ID/g; Blood % ID/g (hDLL3-MC38 tumor model; [2]): 8 % ID/g; Kidneys % ID/g (hDLL3-MC38 tumor model; [2]): 23 % ID/g; Tumors % ID/g (hDLL3-MC38 tumor model; [2]): 58 % ID/g
MAM283: Two domain (2D) ankyrin repeat protein: serum albumin-specific domain (SEQ ID NO: 7), PT linker, DLL3-specific domain (SEQ ID NO: 3) (protein, Ankyrin repeat protein (MAM283)) DLGKKLLEAARAGQDDEVRELLKAGADVNAKDYFSHTPLHLAARNGHLKIVEVLLKAGADVNAKDFAGKTPLHLAADAGHLEIVEVLLKAGADVNAQDIFGKTPADIAADAGHEDIAEVLQKAAGSPTPTPTTPTPTPTTPTPTPTGSDLGKKLLAAAADGQDDEVRELLQAGADVNAKDLFGYTPLHLAAWRGHLEIVEVLLEAGADVNAKDAAGETPLHLAAWFGHLEIVEVLLEAGADVNAQDVQGKTPADLAAKEGHEDIAEVLQQAA | – | 0.953 | 1.79e-05 | 18800 | 5.4 | 8.1 | 21.1 | 16.9 | 22.5 | 0.8 | 26.8 | 45.5 | –
MAM160: Two domain (2D) ankyrin repeat protein: serum albumin-specific domain (SEQ ID NO: 7), PT linker, DLL3-specific domain MAM120 (protein, Ankyrin repeat protein (MAM160)) DLGKKLLEAARAGQDDEVRELLKAGADVNAKDYFSHTPLHLAARNGHLKIVEVLLKAGADVNAKDFAGKTPLHLAADAGHLEIVEVLLKAGADVNAQDIFGKTPADIAADAGHEDIAEVLQKAAGSPTPTPTTPTPTPTTPTPTPTGSDLGTKLLSAAADGQDDEVRELLQAGADVNAKDLFGYTPLHLAAWRGHLEIVEVLLEAGADVNAKDAAGLTPLHLAAWFGHLEIVEVLLEAGADVNAQDVQGVTPADLAAKEGHEDIAEVLQQAA | – | 1.99 | 2.01e-05 | 10100 | – | – | 17.9 | 11.6 | 18.8 | 1.9 | 18 | 28.9 | Blood % ID/g (hDLL3-MC38 tumor model; athymic mice, 1 h, Example 4): 38 % ID/g; Kidneys % ID/g (hDLL3-MC38 tumor model; athymic mice, 1 h, Example 4): 12 % ID/g; T:K ratio (hDLL3-MC38 tumor model; athymic mice, 1 h, Example 4): 0.58; Tumors % ID/g (hDLL3-MC38 tumor model; athymic mice, 1 h, Example 4): 7 % ID/g; Blood % ID/g (hDLL3-MC38 tumor model; athymic mice, 4 h, Example 4): 25 % ID/g; Kidneys % ID/g (hDLL3-MC38 tumor model; athymic mice, 4 h, Example 4): 12 % ID/g; T:K ratio (hDLL3-MC38 tumor model; athymic mice, 4 h, Example 4): 1.42; Tumors % ID/g (hDLL3-MC38 tumor model; athymic mice, 4 h, Example 4): 17 % ID/g; Blood % ID/g (hDLL3-MC38 tumor model; athymic mice, 24 h, Example 4): 3 % ID/g; Kidneys % ID/g (hDLL3-MC38 tumor model; athymic mice, 24 h, Example 4): 17 % ID/g; T:K ratio (hDLL3-MC38 tumor model; athymic mice, 24 h, Example 4): 1.53; Tumors % ID/g (hDLL3-MC38 tumor model; athymic mice, 24 h, Example 4): 26 % ID/g
